Biological target: MUC2C-N (human MUC2 residues 4256-4803, C4786A; PTS3, VWCN, D4 and VWC1) (human)
Experiment: cross-linking

## MUC2C-N (human MUC2 residues 4256-4803, C4786A; PTS3, VWCN, D4 and VWC1) (domain or fragment)
  stoichiometry N: 2

Reference: PMC12775068
